# From PMC8130932 (PLoS Pathogens, 2021)
# B1: FN 12A (antibody, V domains shown)
# VH: QVQLVQSGAEVKKPGSSVKVSCKASGGTFSSYAISWVRQAPGQGLEWMGRIIPILGIANYAQKFQGRVTITADKSTSTAYMELSSLRSEDTAVYYCARSGCSSTSCPSNLYYYYYGMDVWGQGTTVTVSS
# VL: QSVLTQPPSVSAAPGQKVTISCSGSSSNIGNNYVSWYQQLPGTAPKLLIYDNNKRPSGIPDRFSGSKSGTSATLGITGLQTGDEADYYCGTWDSSLSALVFGGGTKLTVL
# notes: source: HEK293T, transfected; culture supernatant or purified
# B2: FJ 1C (antibody, V domains shown)
# VH: QVQLQESGPGLVKPSETLSLTCTVSGYSISSGYYWGWIRQPPGKGLEWIGSIYHSGSTYYNPSLKSRVTISVDTSKNQFSLKLSSVTAADTAVYYCARDKALLWFGELFTNLFDYWGQGTLVTVSS
# VL: QSALTQPASVSGSPGQSITISCTGTSSDVGGYNYVSWYQQHPGKAPKLMIYEVSNRPSGVSNRFSGSKSGNTASLTISGLQAEDEANYYCSSYTSSSTLVFGGGTKLTVL
# notes: as for B1
# B3: FD 11E (antibody, V domains shown)
# VH: EVQLVESGGGLVKPGGSLRLSCAASGFTFSSYSMNWVRQAPGKGLEWVSSISSSSSYIYYADSVKGRFTISRDNAKNSLYLQMNSLRAEDTAVYYCASLAAAGPETYYYYGMDVWGQGTMVTVSS
# VL: not shown
# notes: as for B1
# B4: FD 1E (antibody, V domains shown)
# VH: EVQLLESGGGLVKPGGSLRLSCAASGFTFSSYSMNWVRQAPGKGLEWVSSISSSSSYIYYADSVKGRFTISRDNAKNSLYLQMNSLRAEDTAVYYCASLAAAGPETYYYYGMDVWGQGTMVTVSS
# VL: not shown
# notes: as for B1
# B5: EZ 7A (antibody, V domains shown)
# VH: EVQLVESGAEVKKPGESLKISCKGSGYSFTSYWIGWVRQMPGKGLEWMGIIYPGDSDTRYSPSFQGQVTISADKSISTAYLQWSSLKASDTAMYYCARGWVYRGFPYYGMDVWGQGTMVTVSS
# VL: QSALTQPRSVSGSPGQSVTISCTGTSSDVGGYNYVSWYQQHPGKAPKLMIYDVSKRPSGVPDRFSGSKSGNTASLTISGLQAEDEADYYCCSYAGSYTLVFGGGTKLTVL
# notes: as for B1
# B6: FI 1C (antibody, V domains shown)
# VH: EVQLVESGGGLVKPGGSLRLSCAASGFTFSDYYMSWIRQAPGKGLEWVSYISSSGSTIYYADSVKGRFTISRDNAKNSLYLQMNSLRAEDTAVYYCARRSNRFLIAFDIWGQGTMVTVSS
# VL: QSALTQPASVSGSPGQTITISCTGTSSDVGGYNYVSWYQQHPGKAPKLMIYEVSNRPSGVSNRFSGSKSGNTASLTISGLQAEDEADYYCSSYTSSSTLVVFGGGTKLTVP
# notes: as for B1
# B7: FD 10A (antibody, V domains shown)
# VH: EVQLVESGGGLVQPGGSLRLSCAASGFTFSSYWMHWVRQAPGKGLVWVSRINSDGSSTSYADSVKGRFTISRDNAKNTLYLQMNSLRAEDTAVYYCANMAFDIWGQGTMVTVSS
# VL: not shown
# notes: as for B1
# B8: FJ 10B (antibody, V domains shown)
# VH: QVQLVQSGAEVKKPGESLRISCKGSGYSFTSYWISWVRQMPGKGLEWMGRIDPSDSYTNYSPSFQGHVTISADKSISTAYLQWSSLKASDTAMYYCARLDPRYGPDYYGMDVWGQGTTVTVSS
# VL: AIRMTQSPSSLSASVGDRVTITCRASQSISSYLNWYQQKPGKAPKLLIHAASSLQSGVPSRFSGSGSGTDFTLTMSSLQPEDFATYYCQQSYSTPLTFGGGTKVEIR
# notes: as for B1
# B9: EY 6A (antibody, V domains shown)
# VH: EVQLVESGGGVVQPGRSLRLSCAASAFTFSSYDMHWVRQAPGKGLEWVAVISYDGSNKYYADSVKGRFTISRDNSKNTLYLQMNSLRAEDTAVYYCAKDGGKLWVYYFDYWGQGTLVTVSS
# VL: not shown
# notes: as for B1
# B10: FD 11A (antibody, V domains shown)
# VH: EVQLVESGGGVVQPGRSLRLSCAASGFTFSSYGMHWVRQAPGKGLEWVAVIWYDGSNKYYADSVKGRFTISRDNSKNTLYLQMNSLRAEDTAVYYCAKGPDILTGYYNYYYYGMDVWGQGTMVTVSS
# VL: QSVLTQPPSVSGAPGQRVTISCTGSSSNIGAGYDVHWYQQLPGTAPKLLIYGNSNRPSGVPDRFSGSKSGTSASLAITGLQAEDEADYYCQSYDSSLSGFYVVFGGGTKLTVL
# notes: as for B1
# B11: FM 1A (antibody, V domains shown)
# VH: EVQLLESGGGVVQPGRSLRLSCAASGFTFSSYGMHWVRQAPGKGLEWVAVIWYDGSNKYYADSVKGRFTISRDNSKNTLYLQMNSLRAEDTAVYYCAREGAVGATRGFDYWGQGTLVTVSS
# VL: SYELTQPPSVSVAPGQTARITCGGNNIGSKSVHWYQQKPGQAPVLVVYDDSDRPSGIPERFSGSNSGNTATLTISRVEAGDEADYYCQVWDSSSDQGVFGGGTKLTVL
# notes: as for B1
# B12: FD 5D (antibody, V domains shown)
# VH: EVQLVESGGGLVQPGGSLRLSCAASGFTFSSYSMNWVRQAPGKGLEWVSYISSSSSTIYYADPVKGRFTISRDNAKNSLYLQMNSLRAEDTAVYYCASPGGITAAGTSVLFGYYGMDVWGQGTMVTVSS
# VL: not shown
# notes: as for B1
# B13: EZ 7B (antibody, V domains shown)
# VH: EVQLVESSPGLVKPSETLSLTCTVSGGSISSYYWSWIRQPPGKGLEWIGYIYYSGSTNYNPSLKSRVTISVDTSKNQFSLKLSSVTAADTAVYYCARRVFGPVLPSKLGGSYWGGGAFDIWGQGTMVTVSS
# VL: not shown
# notes: as for B1
# B14: FM 7B (antibody, V domains shown)
# VH: EVQLVQSGAEVKKPGASVKVSCKASGYTFTSYAMHWVRQAPGQRLEWMGWINTGNGNTKYSQKFQGRVTITRDTSASTAYMELSSLRSEDTAVYYCARDPTYCSSTSCYPFSWFDPWGQGTLVTVSS
# VL: NFMLTQPPSVSVAPGQTARITCGGNNIGSKSVHWYQQKPGQAPVLVVYDDSDRPSGIPERFSGSNSGNTATLTISRVEAGDEADYYCQVWDSTGDHSWVFGGGTKLTVL
# notes: as for B1
# B15: FI 4A (antibody, V domains shown)
# VH: EVQLVESGGGLVKPGGSLRLSCAASGFTFSRFSMNWVRQAPGKGLEWVSSISSSGSYIYFADSVKGRFTISRDNAKNSLYLQMNSLRAEDTAIYYCATYLFGDSHTYWGQGTLVTVSS
# VL: QSVLTQPHSVSESPGKTVTISCTGSSGSIASNYVQWYQQRPGSAPTTVIYEDNQRPSGVPDRFSGSIDSSSNSASLTISGLKTEDEADYYCQSYDSSNLHWVFGGGTKLTVL
# notes: as for B1
# B16: EZ 4A (antibody, V domains shown)
# VH: EVQLVQSGAEVKKPGESLKISCKGSGYSFTSYWIGWVRQMPGKGLEWMGIIYPGDSDTRYSPSFQGQVTISADKSISTAYLQWSSLKASDTAMYYCARSPIAADLFDYWGQGTLVTVSS
# VL: not shown
# notes: as for B1
# B17: EZ 4C-1 (antibody, V domains shown)
# VH: EVQLVESGPGLVKPSETLSLTCTVSGGSVSSGNNYWSWIRQPPGKALEWIGYIYYSGSTKYNPSLKSRVTMSVGTSKNQFSLKVNSVTAADTAMYYCARAPSAPFGGLFDWILPKGINNWGQGTLVTVSS
# VL: EIVLTQSPSTLSASVGDRVTITCRTSQSIRSWLAWYQQKPGKAPKLLIFEASTLESGVPERFSGSGSGAEFTLTISSLQPDDFATYYCQQYNGYSYSFGQGTKVEIR
# notes: as for B1
# B18: FG 7A (antibody, V domains shown)
# VH: EVQLVESGGGVVQPGRSLRLSCAASGFTFSSYAMHWVRQAPGKGLEWVAVISYDGSNKYYADSVKGRFTISRDNSKNTLYLQMNSLRAEDTAVYYCARSHSGSYRASLDYWGQGTTVTVSS
# VL: not shown
# notes: as for B1
# B19: FD 1D (antibody, V domains shown)
# VH: EVQLVESGGGVVQPGRSLRLSCAASGFTFSSYAMHWVRQAPGKGLEWVAVISYDGSNKYYADSVKGRFTISRDNSKNTLYLQMNSLRAEDTAVYYCARAGSGSYLNWFDPWGQGTLVTVSS
# VL: EIVLTQSPATLSLSPGERATLSCRASQSVSSYLAWYQQKPGQAPRLLIYDASNRATGIPARFSGSGSGTDFTLTISSLEPEDFAVYYCQQRSNWPITFGQGTRLEIK
# notes: as for B1
# Tests used:
# [1] = biological target: T1, SARS-CoV-2 NTD on MDCK-SIAT1 cells (SARS-CoV-2 (so in the source)); assay: flow cytometry on cells; conditions: one partner purified
# T1 construct: also called MDCK-NTD
# [2] = biological target: T2, SARS-CoV-2 RBD (amino acids 340-538) on MDCK-SIAT1 cells (SARS-CoV-2 (so in the source)); assay: flow cytometry on cells; conditions: one partner purified
# T2 construct: also called MDCK-RBD; source: MDCK-SIAT1, stably transduced (lentiviral vector), on the cell surface
# [3] = biological target: T3, SARS-CoV-2 spike receptor-binding domain, recombinant (SARS-CoV-2, reference sequence, UniProt P0DTC2); assay: ELISA
# T3 construct: also called RBD; source: bought: Sino Biologicals, baculovirus-insect cells
# [4] = biological target: SARS-CoV-2 spike glycoprotein of wild-type virus, in infected Vero E6 cells (SARS-CoV-2 …, UniProt P0DTC2); assay: cell-based or functional assay
# [5] = biological target: T4, SARS-CoV-2 spike S2 subunit, recombinant (SARS-CoV-2, reference sequence, UniProt P0DTC2); assay: ELISA
# T4 construct: source: bought: Sino Biologicals, baculovirus-insect cells
# [6] = biological target: SARS-CoV-2 nucleocapsid, recombinant (SARS-CoV-2, reference sequence, UniProt P0DTC9); assay: ELISA
Binder,binding result [2],OD450 [3] [OD450],other results
B1,binds,1.33,binding result [1]: no binding
B2,no binding,,"PRNT EC50, wild-type SARS-CoV-2 (hCoV-19/England/02/2020) on Vero E6 cells [4]: 55.5 nM; binding result [1]: binds"
B3,no binding,,"PRNT EC50, wild-type SARS-CoV-2 (hCoV-19/England/02/2020) on Vero E6 cells [4]: 70 nM; binding result [1]: no binding"
B4,,,"PRNT EC50, wild-type SARS-CoV-2 (hCoV-19/England/02/2020) on Vero E6 cells [4]: 110 nM"
B5,binds,1.12,
B6,binds,1.22,
B7,no binding,,"PRNT EC50, wild-type SARS-CoV-2 (hCoV-19/England/02/2020) on Vero E6 cells [4]: 111 nM; binding result [1]: no binding; OD450 [5]: 1.32 OD450"
B8,binds,1.22,
B9,binds,1.18,
B10,binds,1.17,
B11,,,OD450 [5]: 0.88 OD450
B12,binds,1.19,
B13,,,OD450 [6]: 1.01 OD450
B14,binds,1.27,
B15,binds,1.12,
B16,,,OD450 [6]: 1.03 OD450
B17,,,OD450 [6]: 0.6 OD450
B18,,,OD450 [5]: 1.05 OD450
B19,no binding,,binding result [1]: no binding; OD450 [5]: 1.06 OD450
